From patent publication US8524227B2, “Anti-IL-TIF antibodies” (ZymoGenetics, Inc., priority 2002, dated 2013) come the findings set out here.

Assay [1] deals with T1, CRF2-4/zcytor11 heterodimeric receptor (Homo sapiens, UniProt Q08334+Q8N6P7, R518G).
T1 construct: BaF3 cells expressing the full-length CFR2-4 receptor were constructed; expressed in transfected cells
T1 sequence (Q8N6P7 16-574 R518G): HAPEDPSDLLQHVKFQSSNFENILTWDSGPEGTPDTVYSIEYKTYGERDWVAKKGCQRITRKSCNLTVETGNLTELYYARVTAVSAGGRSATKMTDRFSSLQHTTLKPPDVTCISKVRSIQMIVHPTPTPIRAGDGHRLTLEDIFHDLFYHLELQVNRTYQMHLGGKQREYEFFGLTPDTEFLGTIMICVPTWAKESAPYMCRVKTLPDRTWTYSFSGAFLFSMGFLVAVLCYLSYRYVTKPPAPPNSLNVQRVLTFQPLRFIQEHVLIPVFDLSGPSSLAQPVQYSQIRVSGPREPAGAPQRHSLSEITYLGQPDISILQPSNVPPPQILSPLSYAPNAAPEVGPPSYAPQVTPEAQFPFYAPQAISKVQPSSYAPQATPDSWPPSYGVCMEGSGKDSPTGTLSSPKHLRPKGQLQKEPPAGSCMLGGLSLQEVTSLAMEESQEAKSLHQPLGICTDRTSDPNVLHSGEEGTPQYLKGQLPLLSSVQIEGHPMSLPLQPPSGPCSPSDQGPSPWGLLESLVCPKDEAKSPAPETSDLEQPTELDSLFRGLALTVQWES
T1 sequence (Q08334 20-325): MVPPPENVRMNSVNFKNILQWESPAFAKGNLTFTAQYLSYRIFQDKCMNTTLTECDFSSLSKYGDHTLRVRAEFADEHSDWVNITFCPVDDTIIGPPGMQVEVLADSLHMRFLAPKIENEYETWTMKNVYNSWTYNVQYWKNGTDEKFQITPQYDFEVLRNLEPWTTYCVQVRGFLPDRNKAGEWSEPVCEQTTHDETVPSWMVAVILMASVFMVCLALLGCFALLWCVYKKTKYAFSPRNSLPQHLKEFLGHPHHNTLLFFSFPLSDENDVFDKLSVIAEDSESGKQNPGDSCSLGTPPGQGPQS
Put plainly: Alamar Blue proliferation assay, BaF3/CRF2-4/zcytor11 cells. The format is cell-based. The following applies: 50 ng/ml IL-TIF-CEE. The protocol:
BaF3/CRF2-4/zcytor11 cells were spun down and washed in the complete media, described in Example 21A above, but without mIL-3 (hereinafter referred to as “mIL-3 free media”). The cells were spun and washed 3 times to ensure the removal of the mIL-3 Cells were then counted in a hemacytometer. Cells were plated in a 96-well format at 5000 cells per well in a volume of 100 μl per well using the mIL-3 free media.
Proliferation of the BaF3/CRF2-4/zcytor11 cells was assessed using IL-TIF-CEE protein diluted with mIL-3 free media to 50, 10, 2, 1, 0.5, 0.25, 0.13, 0.06 ng/ml concentrations. 100 μl of the diluted protein was added to the BaF3/CRF2-4/zcytor11 cells. The total assay volume is 200 μl. […] Alamar Blue gives a fluourometric readout based on number of live cells, and is thus a direct measurement of cell proliferation in comparison to a negative control. […] Plates were read on the Finax™ plate reader (Molecular Devices Sunnyvale, Calif.) using the SoftMax™ Pro program, at wavelengths 544 (Excitation) and 590 (Emmission). […] The response, as measured, was approximately 15-fold over background at the high end of 50 ng/ml down to a 2-fold induction at the low end of 0.06 ng/ml. […]
IL-TIF protein (SEQ ID NO:3) was diluted to 200 pg/ml in mIL-3 free media. […] Plates were read on the Wallac Victor 2 1420 Multilabel Counter (Wallac, Turku, Finland) at wavelengths 530 (Excitation) and 590 (Emmssion). […]
(The colour change of resazurin is a common sign of viable cells or microbes.)

A further assay deals with BaF3 wild type cells. Put plainly: Alamar Blue proliferation assay, BaF3 wild type cells. The format is cell-based, murine.
The test system of another assay is BaF3/CRF2-4 cells. Briefly: Alamar Blue proliferation assay, BaF3/CRF2-4 cells. Type of assay: cell-based, murine.

B1: IL-TIF-CEE: IL-TIF polypeptide containing C-terminal GluGlu (EE) tag, purified from BHK 570 cells (protein)
chain: APISSHCRLDKSNFQQPYITNRTFMLAKEASLADNNTDVRLIGEKLFHGVSMSERCYLMKQVLNFTLEEVLFPQSDRFQPYMQEVVPFLARLSNRLSTCHIEGDDLHIQRNVQKLKDTVKKLGESGEIKAIGELDLLFMSLRNACIEYMPME
As for B1, the “proliferative response over background” value in assay [1] was “approximately 15 fold”. Also, the “proliferation in response to IL-TIF-CEE” value with BaF3 wild type cells and in the assay with BaF3/CRF2-4 cells was “did not proliferate” in each case.
